Test results reported in patent US8980604B2 (priority 2009, dated 2015).

Key:
[1] = target: T1, E. coli glycerol dehydrogenase (GlyDH, GldA), native (wild type) (Escherichia coli, UniProt P0A9S5); experiment: Inhibition by product 1,2-propanediol, native GlyDH; type: biochemical; parameters: made in house; host or cells: E. coli BL21 star (DE3) ΔgldA::Cm with pETTOPO-gldA; conditions: read-out: loss of maximum activity
T1 sequence (P0A9S5 1-367): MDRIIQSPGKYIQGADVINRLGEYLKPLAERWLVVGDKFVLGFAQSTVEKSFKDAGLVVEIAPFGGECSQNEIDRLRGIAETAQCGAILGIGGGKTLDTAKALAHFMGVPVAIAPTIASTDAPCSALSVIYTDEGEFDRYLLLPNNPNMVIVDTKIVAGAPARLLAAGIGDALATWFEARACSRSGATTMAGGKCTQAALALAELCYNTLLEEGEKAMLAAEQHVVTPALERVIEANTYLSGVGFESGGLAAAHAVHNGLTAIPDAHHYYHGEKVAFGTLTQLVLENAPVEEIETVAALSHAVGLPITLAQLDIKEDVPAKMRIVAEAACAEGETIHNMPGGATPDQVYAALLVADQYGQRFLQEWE
Protocol: (§1) The 3 strains E. coli MG1655 pME101-VB01-gldA, E. coli MG1655 pME101-VB01-gldA*(A160T) and E. coli MG1655 pME101-VB01-gldA*(T120N) were cultivated in minimal medium with 10 g/l glucose as carbon source in 500 ml baffled Erlenmeyer flasks with 50 ml culture medium. The culture was carried out on a rotary shaker at 200 rpm. The temperature of the culture was maintained at 37° C. and the pH of the medium was buffered with MOPS (initial pH 6.8). Expression of the gene on the pME101-VB01 plasmid was induced by adding 100 μM IPTG at the beginning of the culture. The cultures were stopped at mid-exponential phase. The biomass was harvested by centrifugation, the supernatant was discarded and the pellet was stored at −20° C. before use.
(§2) Between 55-65 mg of E. coli biomass were resuspended in 9 ml of 100 mM Potassium phosphate pH 7, 0.1 mM DTT, 0.1 mM pyridoxal 5′-phosphate (PLP) and a protease inhibitor cocktail. Cells were sonicated on ice (Branson sonifier, 70 W) during four cycles of 30 sec with 30 sec intervals. After sonication, cells debris were removed by centrifugation at 12000 g for 30 min at 4° C. The crude extracts were desalted using an Econo-Pac 10 DG column (BioRad).

[2] = target: T1, E. coli glycerol dehydrogenase (GlyDH, GldA), native (wild type); experiment: Kinetics toward NADH and inhibition by NAD+, crude extract, native GlyDH
[3] = target: GlyDH (glycerol dehydrogenase) of Nishise et al, 1984 (Cellulomonas); conditions: read-out: Ki (hydroxyacetone), literature; cited from earlier work
[4] = target: T2, E. coli glycerol dehydrogenase (GlyDH, GldA) mutant GlyDH*(A160T) (Escherichia coli, UniProt P0A9S5, A160T); experiment: Inhibition by substrate hydroxyacetone (Dixon plot), GlyDH*(A160T); type: biochemical; parameters: made in house; host or cells: E. coli BL21 star (DE3) ΔgldA::Cm with pETTOPO-gldA*(A160T); conditions: crude extract
T2 sequence (P0A9S5 1-367 A160T): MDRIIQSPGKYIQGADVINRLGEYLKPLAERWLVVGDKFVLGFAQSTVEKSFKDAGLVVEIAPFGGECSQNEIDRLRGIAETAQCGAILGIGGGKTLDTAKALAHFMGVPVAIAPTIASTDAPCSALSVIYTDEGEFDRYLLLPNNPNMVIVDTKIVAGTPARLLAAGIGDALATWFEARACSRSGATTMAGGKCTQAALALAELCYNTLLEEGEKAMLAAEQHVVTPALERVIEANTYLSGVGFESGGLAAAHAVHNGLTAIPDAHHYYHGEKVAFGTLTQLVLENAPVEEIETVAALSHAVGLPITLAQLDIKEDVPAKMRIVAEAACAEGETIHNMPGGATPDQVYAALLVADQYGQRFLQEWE
Protocol: as §1, §2

[5] = target: T3, E. coli glycerol dehydrogenase (GlyDH, GldA) mutant GlyDH*(T120N) (Escherichia coli, UniProt P0A9S5, T120N); experiment: Inhibition by substrate hydroxyacetone (Dixon plot), GlyDH*(T120N); type: biochemical; parameters: made in house; host or cells: E. coli BL21 star (DE3) ΔgldA::Cm with pETTOPO-gldA*(T120N); conditions: crude extract
T3 sequence (P0A9S5 1-367 T120N): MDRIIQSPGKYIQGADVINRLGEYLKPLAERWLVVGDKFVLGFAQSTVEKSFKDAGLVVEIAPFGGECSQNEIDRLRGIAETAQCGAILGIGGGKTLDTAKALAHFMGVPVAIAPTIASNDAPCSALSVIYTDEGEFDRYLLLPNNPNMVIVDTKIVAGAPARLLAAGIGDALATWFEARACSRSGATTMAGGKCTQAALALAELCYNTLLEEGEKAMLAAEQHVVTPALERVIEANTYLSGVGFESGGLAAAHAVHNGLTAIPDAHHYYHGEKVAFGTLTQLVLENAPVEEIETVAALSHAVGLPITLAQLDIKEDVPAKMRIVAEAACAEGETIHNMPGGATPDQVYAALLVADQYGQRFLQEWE
Protocol: as §1, §2

[6] = test system: Glycerol dehydrogenase (GlyDH); type: biochemical, E. coli; conditions: for Specific activity, Glycolaldehyde: substrate glycolaldehyde; for Specific activity, Glycolaldehyde / Specific activity, Hydroxyacetone / Specific activity, Methyl glyoxal: purified enzyme, pH 6.5, 30° C.; for Specific activity, Hydroxyacetone: substrate hydroxyacetone; for Specific activity, Methyl glyoxal: substrate methyl glyoxal
Protocol: The oxidation reaction was carried out in quartz cuvette cells filled with 1 ml of the mixture: 100 mM MES buffer pH 6.5 with 30 mM of ammonium sulphate, 0.1 mM of iron sulphate, 0.1 mM of NADH and around 0.5 μg of purified proteins. […] In all reactions, non enzymatic rates were subtracted from the observed initial reaction rates. Enzyme activities are reported as μmoles of substrate/min/mg of […] and represents averages for at least three purified enzyme preparations.
The purification process designed to purify the glycerol dehydrogenase overexpressed in E. coli is composed of two steps. […] Cell pellets were resuspended in 3 ml of 50 mM HEPES buffer pH 7.5 containing protease inhibitor cocktail (Roche) and homogenized by sonication (at 0° C., under aerobic conditions, in four cycles of 30 s with 2 minutes intervals between each cycle). Cells debris were eliminated by centrifugation (5 min 12000 g) and nucleic acids in cell homogenate were precipitated by a streptomycin sulphate treatment (13.3 mg/ml final concentration, 15 minutes, 0° C.). The streptomycin sulphate treated cell homogenate was harvested by centrifugation (5 min 12000 g), and contaminant proteins of the supernatant were eliminated by ammonium sulphate precipitation at a saturated concentration of 20%, at 4° C., with stirring over one hour. The precipitate was then removed by centrifugation (20 min, 8600 g, 4° C.) and discarded. A further portion of ammonium sulphate at a saturated concentration of 30% was added to the supernatant as previously and then centrifuged 30 minutes at 8600 g 4° C. collecting the precipitate. The precipitate was dissolved in 3 ml of 50 mM Hepes Buffer pH 7.5 with 1M ammonium sulphate before loading 2.5 ml sample onto a hydrophobic interaction chromatography column (Hitrap phenyl sepharose, GEhealthcare) connected to an AKTA purifier system and equilibrated with 50 mM Hepes Buffer pH 7.5 containing 1M ammonium sulphate. After washing with 20 ml of the same buffer, proteins were eluted with a 20 ml linear gradient of 50 mM Hepes Buffer pH 7.5 from 1 M to 0 M of ammonium sulphate. […] The protein concentration and purity were respectively determined with the Bradford reagent and with sodium dodecylsulfate polyacrylamide gel electrophoresis (FIG. 3).
The kinetic parameters were determined with Sigma Plot (Systat Software Inc, San Jose Calif.) by fitting to the Michaelis Menten equation using a non linear regression.

[7] = test system: Glycerol dehydrogenase (GlyDH); type: biochemical, E. coli; conditions: crude extract; hydroxyacetone as substrate
Protocol: (§3) Glycerol dehydrogenase activity was assayed by measuring the initial rate of NADH oxidation with a spectrophotometer at a wavelength of 340 nm and at a constant temperature of 30° C. […] Control assay (blank), lacking the substrate was run in parallel and the value measured for the control was subtracted to the value measured for the assay to take into account non-specific oxidation of NADH.
(§4) One unit of enzyme activity was defined as the amount of enzyme that consumed 1 μmol substrate per minute under the conditions of the assay. Specific enzyme activity was expressed as units per mg of protein.
(§5) Enzyme kinetics with regards to NADH were realised with increasing concentration of NADH between 0.025 and 0.4 mM.

[8] = substrate: CC(=O)CO; experiment: purified protein, by the assay type; conditions: other: purified enzyme, pH 6.5, 30° C., 0.1 mM NADH, hydroxyacetone 0.1 to 15 mM
[9] = target: T4, Glycerol dehydrogenase (GlyDH) (Escherichia coli, UniProt P0A9S5, A160T); type: biochemical, E. coli; conditions: NAD+ 0.6-1.2-2.5-4 mM
T4 construct: made in house; host or cells: E. coli MG1655, plasmid pME101-VB01-gldA; crude extract, not purified
Protocol: as §3, §4, §5

With `CC(O)CO` (centres unmarked) [1,2-propanediol] as the molecule, how does the inhibition at 40000 µM [1] read?
The inhibition at 40000 µM was 50%.

What about the inhibition at 100000 µM [1] of the same molecule?
Its inhibition at 100000 µM is 65%.

Which Ki [2] does the source give for `NC(=O)c1ccc[n+]([C@@H]2O[C@H](COP(=O)([O-])OP(=O)(O)OC[C@H]3O[C@@H](n4cnc5c(N)ncnc54)[C@H](O)[C@@H]3O)[C@@H](O)[C@H]2O)c1` [NAD+] here?
The Ki was 0.43 mM.

Which Ki [3] does the source give for `CC(=O)CO` [Hydroxyacetone, hydroxyacetone] here?
The Ki was 11.6 mM.

And the “Ki Hydroxyacetone increase by a factor (vs native)” value [4]?
Its value is “more than 10”.

What about the “Ki Hydroxyacetone increase by a factor (vs native)” value [5] of the same molecule?
Its value is “more than 10”.

B1: E. coli glycerol dehydrogenase (GlyDH, GldA), native (wild type) (Escherichia coli K-12) (protein)
chain: MDRIIQSPGKYIQGADVINRLGEYLKPLAERWLVVGDKFVLGFAQSTVEKSFKDAGLVVEIAPFGGECSQNEIDRLRGIAETAQCGAILGIGGGKTLDTAKALAHFMGVPVAIAPTIASTDAPCSALSVIYTDEGEFDRYLLLPNNPNMVIVDTKIVAGAPARLLAAGIGDALATWFEARACSRSGATTMAGGKCTQAALALAELCYNTLLEEGEKAMLAAEQHVVTPALERVIEANTYLSGVGFESGGLAAAHAVHNGLTAIPDAHHYYHGEKVAFGTLTQLVLENAPVEEIETVAALSHAVGLPITLAQLDIKEDVPAKMRIVAEAACAEGETIHNMPGGATPDQVYAALLVADQYGQRFLQEWE
With B1 as the molecule, how does the “Specific activity, Glycolaldehyde” value [6] read?
Its value is 148.89 +/− 19.36 U/mg.

And the “Specific activity, Hydroxyacetone” value [6]?
The value was 36.3 +/− 0.88 U/mg.

What about the “Specific activity, Methyl glyoxal” value [6] of the same molecule?
The value was 57.77 +/− 3.81 U/mg.

What about the Specific activity [7] of the same molecule?
Its Specific activity is 1240 ± 77 nmol/min/mg.

And the Km [8]?
Its Km is 70 ± 20 µM.

B2: E. coli glycerol dehydrogenase (GlyDH, GldA) mutant GlyDH*(A160T) (Escherichia coli K-12; A160T) (protein)
chain: MDRIIQSPGKYIQGADVINRLGEYLKPLAERWLVVGDKFVLGFAQSTVEKSFKDAGLVVEIAPFGGECSQNEIDRLRGIAETAQCGAILGIGGGKTLDTAKALAHFMGVPVAIAPTIASTDAPCSALSVIYTDEGEFDRYLLLPNNPNMVIVDTKIVAGTPARLLAAGIGDALATWFEARACSRSGATTMAGGKCTQAALALAELCYNTLLEEGEKAMLAAEQHVVTPALERVIEANTYLSGVGFESGGLAAAHAVHNGLTAIPDAHHYYHGEKVAFGTLTQLVLENAPVEEIETVAALSHAVGLPITLAQLDIKEDVPAKMRIVAEAACAEGETIHNMPGGATPDQVYAALLVADQYGQRFLQEWE
Which results are given for B2?
Specific activity, Glycolaldehyde [6]: 167.33 +/− 6.03 U/mg; Specific activity, Hydroxyacetone [6]: 40.5 +/− 0.85 U/mg; Specific activity, Methyl glyoxal [6]: 58.27 +/− 2.42 U/mg; Kinetics compared with native enzyme ([6]; three substrates, pH 6.5): no significant differences; Inhibition by NAD+ at the concentrations used [9]: almost no inhibition; Specific activity [7]: 1140 ± 42 nmol/min/mg
